Like-named read-outs stand apart in the source and are kept apart here.
Key:
[1] = target: KS-PPT di-domain construct of the yeast FAS α-subunit (S. cerevisiae); experiment: SEC; Superdex 200 Increase 30/100 GL column with calibration curve; KS-PPT di-domain construct
[2] = target: KS-PPT di-domain construct of the yeast FAS α-subunit (S. cerevisiae); experiment: as above; remark: listed apart in the source
[3] = target: α_ΔMPT-ACP construct of the yeast FAS α-subunit (KS-PPT elongated N-terminally by DM1, DM2 and KR) (S. cerevisiae); experiment: SEC; Superose 6 Increase 30/100 GL column, TRIS-HCl buffer N100; protein preparations from purifications under native and denaturing conditions (refolded)

stoichiometry N [1]	stoichiometry N [2]	stoichiometry N [3]	Substance
2	2.5		KS-PPT di-domain construct of the yeast FAS α-subunit (domain or fragment)
		2	α_ΔMPT-ACP construct of the yeast FAS α-subunit (KS-PPT elongated N-terminally by DM1, DM2 and KR) (domain or fragment)

From paper PMC6972935
